T1: Mcm4 (S. cerevisiae, UniProt P30665 1-933)
T1 construct: Mcm4, subunit of the yeast MCM (Mcm2–7) helicase; Subunit seen within the dCMGE structure; source: purified within Mcm2–7–Cdt1 on the basis of previously established protocols
T1 sequence: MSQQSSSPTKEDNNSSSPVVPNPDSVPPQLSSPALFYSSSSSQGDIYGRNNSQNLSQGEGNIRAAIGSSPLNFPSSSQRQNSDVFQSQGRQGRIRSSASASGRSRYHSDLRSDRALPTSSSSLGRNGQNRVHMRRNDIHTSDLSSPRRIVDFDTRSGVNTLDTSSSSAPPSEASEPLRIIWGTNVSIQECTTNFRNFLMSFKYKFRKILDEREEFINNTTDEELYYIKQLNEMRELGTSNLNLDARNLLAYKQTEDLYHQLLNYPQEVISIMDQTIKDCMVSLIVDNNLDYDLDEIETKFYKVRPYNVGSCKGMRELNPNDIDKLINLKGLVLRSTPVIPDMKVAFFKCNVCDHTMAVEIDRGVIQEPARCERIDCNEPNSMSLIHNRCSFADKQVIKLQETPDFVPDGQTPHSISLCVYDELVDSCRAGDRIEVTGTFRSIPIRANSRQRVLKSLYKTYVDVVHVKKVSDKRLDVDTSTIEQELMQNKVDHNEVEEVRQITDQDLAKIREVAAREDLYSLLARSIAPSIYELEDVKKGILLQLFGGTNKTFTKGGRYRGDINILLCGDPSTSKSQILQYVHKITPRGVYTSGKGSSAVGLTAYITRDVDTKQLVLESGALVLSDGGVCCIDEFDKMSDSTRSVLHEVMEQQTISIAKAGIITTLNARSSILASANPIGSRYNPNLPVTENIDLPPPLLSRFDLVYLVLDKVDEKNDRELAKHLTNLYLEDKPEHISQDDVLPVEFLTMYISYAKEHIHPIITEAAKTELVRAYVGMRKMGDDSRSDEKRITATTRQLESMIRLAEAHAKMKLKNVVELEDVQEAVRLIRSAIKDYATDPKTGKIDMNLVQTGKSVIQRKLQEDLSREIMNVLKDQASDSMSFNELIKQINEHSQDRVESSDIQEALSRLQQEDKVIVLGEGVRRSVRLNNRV


Columns and labels:
Assay in all cases: cryo-EM structure; dCMGE assembled from purified yeast proteins on nucleosome-flanked (chromatinized) ARS1 origin DNA with 5 mM ATP; undiluted CMG assembly reaction frozen on grids; dimer map at limited resolution, symmetry-expanded CMGE at 3.5 Å
[1] = molecular target: the molecule itself
[2] = molecular target: T1, Mcm4; details: both partners purified
[3] = molecular target: T2, Mcm3 (S. cerevisiae, UniProt P24279 1-971); details: both partners purified
T2 construct: Mcm3, subunit of the yeast MCM (Mcm2–7) helicase; Subunit seen within the dCMGE structure; source: purified within Mcm2–7–Cdt1 on the basis of previously established protocols
T2 sequence (P24279 whole entry): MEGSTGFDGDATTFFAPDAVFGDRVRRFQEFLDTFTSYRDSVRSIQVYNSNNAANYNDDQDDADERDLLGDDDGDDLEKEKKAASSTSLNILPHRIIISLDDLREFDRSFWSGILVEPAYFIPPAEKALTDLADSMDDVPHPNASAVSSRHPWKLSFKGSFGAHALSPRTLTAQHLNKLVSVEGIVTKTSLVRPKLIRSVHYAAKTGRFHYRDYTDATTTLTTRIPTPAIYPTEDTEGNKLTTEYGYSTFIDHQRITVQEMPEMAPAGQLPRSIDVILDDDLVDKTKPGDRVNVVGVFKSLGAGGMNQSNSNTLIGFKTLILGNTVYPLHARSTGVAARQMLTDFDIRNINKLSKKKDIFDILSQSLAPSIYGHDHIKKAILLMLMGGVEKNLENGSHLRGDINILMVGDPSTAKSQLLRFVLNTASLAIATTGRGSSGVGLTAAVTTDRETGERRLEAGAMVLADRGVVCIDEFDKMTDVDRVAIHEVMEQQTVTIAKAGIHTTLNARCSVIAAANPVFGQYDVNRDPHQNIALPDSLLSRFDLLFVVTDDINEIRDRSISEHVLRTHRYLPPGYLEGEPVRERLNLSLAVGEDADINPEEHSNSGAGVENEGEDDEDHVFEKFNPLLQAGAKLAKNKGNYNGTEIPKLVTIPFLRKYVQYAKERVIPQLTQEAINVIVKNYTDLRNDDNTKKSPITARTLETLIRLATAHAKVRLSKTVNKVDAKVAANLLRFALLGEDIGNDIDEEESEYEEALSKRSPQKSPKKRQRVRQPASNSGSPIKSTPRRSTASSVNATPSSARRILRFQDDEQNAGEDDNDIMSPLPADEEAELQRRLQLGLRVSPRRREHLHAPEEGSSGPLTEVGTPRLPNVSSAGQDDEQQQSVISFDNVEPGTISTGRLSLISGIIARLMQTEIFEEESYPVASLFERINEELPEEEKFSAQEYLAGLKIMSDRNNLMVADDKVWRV

binding result [2] | binding result [3] | Binder | binding result [1]
 |  | Mcm6 (natural protein, S. cerevisiae, Mcm6, subunit of the yeast MCM (Mcm2–7) helicase; Subunit seen within the dCMGE structure; source: purified within Mcm2–7–Cdt1 on the basis of previously established protocols) MSSPFPADTPSSNRPSNSSPPPSSIGAGFGSSSGLDSQIGSRLHFPSSSQPHVSNSQTGPFVNDSTQFSSQRLQTDGSATNDMEGNEPARSFKSRALNHVKKVDDVTGEKVREAFEQFLEDFSVQSTDTGEVEKVYRAQIEFMKIYDLNTIYIDYQHLSMRENGALAMAISEQYYRFLPFLQKGLRRVVRKYAPELLNTSDSLKRSEGDEGQADEDEQQDDDMNGSSLPRDSGSSAAPGNGTSAMATRSITTSTSPEQTERVFQISFFNLPTVHRIRDIRSEKIGSLLSISGTVTRTSEVRPELYKASFTCDMCRAIVDNVEQSFKYTEPTFCPNPSCENRAFWTLNVTRSRFLDWQKVRIQENANEIPTGSMPRTLDVILRGDSVERAKPGDRCKFTGVEIVVPDVTQLGLPGVKPSSTLDTRGISKTTEGLNSGVTGLRSLGVRDLTYKISFLACHVISIGSNIGASSPDANSNNRETELQMAANLQANNVYQDNERDQEVFLNSLSSDEINELKEMVKDEHIYDKLVRSIAPAVFGHEAVKKGILLQMLGGVHKSTVEGIKLRGDINICVVGDPSTSKSQFLKYVVGFAPRSVYTSGKASSAAGLTAAVVRDEEGGDYTIEAGALMLADNGICCIDEFDKMDISDQVAIHEAMEQQTISIAKAGIHATLNARTSILAAANPVGGRYNRKLSLRGNLNMTAPIMSRFDLFFVILDDCNEKIDTELASHIVDLHMKRDEAIEPPFSAEQLRRYIKYARTFKPILTKEARSYLVEKYKELRKDDAQGFSRSSYRITVRQLESMIRLSEAIARANCVDEITPSFIAEAYDLLRQSIIRVDVDDVEMDEEFDNIESQSHAASGNNDDNDDGTGSGVITSEPPADIEEGQSEATARPGTSEKKKTTVTYDKYVSMMNMIVRKIAEVDREGAEELTAVDIVDWYLLQKENDLGSLAEYWEERRLAFKVIKRLVKDRILMEIHGTRHNLRDLENEENENNKTVYVIHPNCEVLDQLEPQDSS | binds
binds | binds | Mcm7 (natural protein, S. cerevisiae, Mcm7, subunit of the yeast MCM (Mcm2–7) helicase; Subunit seen within the dCMGE structure; source: purified within Mcm2–7–Cdt1 on the basis of previously established protocols) MSAALPSIQLPVDYNNLFNEITDFLVTFKQDTLSSDATRNENEDENLDAENIEQHLLEKGPKYMAMLQKVANRELNSVIIDLDDILQYQNEKFLQGTQADDLVSAIQQNANHFTELFCRAIDNNMPLPTKEIDYKDDVLDVILNQRRLRNERMLSDRTNEIRSENLMDTTMDPPSSMNDALREVVEDETELFPPNLTRRYFLYFKPLSQNCARRYRKKAISSKPLSVRQIKGDFLGQLITVRGIITRVSDVKPAVEVIAYTCDQCGYEVFQEVNSRTFTPLSECTSEECSQNQTKGQLFMSTRASKFSAFQECKIQELSQQVPVGHIPRSLNIHVNGTLVRSLSPGDIVDVTGIFLPAPYTGFKALKAGLLTETYLEAQFVRQHKKKFASFSLTSDVEERVMELITSGDVYNRLAKSIAPEIYGNLDVKKALLLLLVGGVDKRVGDGMKIRGDINVCLMGDPGVAKSQLLKAICKISPRGVYTTGKGSSGVGLTAAVMKDPVTDEMILEGGALVLADNGICCIDEFDKMDESDRTAIHEVMEQQTISISKAGINTTLNARTSILAAANPLYGRYNPRLSPLDNINLPAALLSRFDILFLMLDIPSRDDDEKLAEHVTYVHMHNKQPDLDFTPVEPSKMREYIAYAKTKRPVMSEAVNDYVVQAYIRLRQDSKREMDSKFSFGQATPRTLLGIIRLSQALAKLRLADMVDIDDVEEALRLVRVSKESLYQETNKSKEDESPTTKIFTIIKKMLQETGKNTLSYENIVKTVRLRGFTMLQLSNCIQEYSYLNVWHLINEGNTLKFVDDGTMDTDQEDSLVSTPKLAPQTTASANVSAQDSDIDLQDA | 

Source: PMC9242855, “Mechanism of replication origin melting nucleated by CMG helicase assembly” (Nature, 2022)
